The source of these data is patent publication US20240350646A1, “METHODS AND COMPOSITIONS FOR DELIVERY TO AND ACROSS THE BLOOD BRAIN BARRIER” (NUtech Ventures, priority 2021, published 2024).

Series [1] is described as follows: NP characterization: TEM particle diameter, DLS hydrodynamic size, zeta potential. The class given is physicochemical. On the procedure:
A high voltage transmission electron microscope (TEM) (Tecnai Osiris™, 200 kV) was used to measure particle diameters of PEG diacid coated Gd NPs. A copper grid (PELCO mesh size 400, TED PELLA, INC.) covered with an amorphous carbon membrane was placed onto a filter paper. Then, a sample solution diluted in triply distilled water was dropped over the copper grid by using a micropipette (Eppendorf, 2-20 μL). Dynamic light scattering (DLS) studies of the NPs were conducted using a Malvern Instruments Zetasizer Nano series instrument. Solutions of the NPs were prepared in DPBS (pH 7.4) at a concentration of 0.05 mM. The resulting solutions were filtered with 0.22 μm filters before the measurement. The NP concentration was determined by using an inductively coupled plasma mass spectrometer (ICPMS) (Agilent 7500 cx). To determine this, ˜0.5 mL of the NP solution was taken out and treated with HNO3 to dissolve nanoparticles in the solution completely. A Fourier transform-infrared (FT-IR) (Nicolet AVATAR 380 FT-IR) was used to verify the surface coating. To record the FT-IR absorption spectrum (400-4000 cm^−1), the powder sample was prepared. Peptide attachment to NPs was confirmed using BCA assay. Attaching efficiency was confirmed using the equation, Conjugation Efficiency of peptide (%)=Amount of peptide in NPs/Initial amount of peptide×100.

Series [2] concerns the target T1, recombinant human claudin-1 (human, UniProt O95832 1-211, limits assumed).
T1 construct: Expressed and purified as in Vecchio & Stroud 2019, in beta-DDM detergent; also called CLDN1
T1 sequence: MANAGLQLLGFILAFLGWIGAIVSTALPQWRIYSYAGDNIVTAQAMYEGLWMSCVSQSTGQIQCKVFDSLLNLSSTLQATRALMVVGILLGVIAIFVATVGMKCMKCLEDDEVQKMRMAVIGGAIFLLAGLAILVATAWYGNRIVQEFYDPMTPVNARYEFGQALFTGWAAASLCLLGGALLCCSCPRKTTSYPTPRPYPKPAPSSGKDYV
Kind of series: microscale thermophoresis, AF647 labeled C1C2-NP fixed at 70 nM, human claudin-1 titrated 2.2-73,500 nM. On the procedure:
For the binding experiments, the concentration of human claudin-1 was varied from 2.2-73,500 nM and the AF647-labeled C1C2-NP was fixed at 70 nM, while the AF647 labeled NPs and AF647 labeled C1C2 peptide were fixed at 1 and 0.3 μM, respectively. Binding of the AF647 labeled C1C2-NP to human claudin-3, -4, and -9 were tested using 0.4-14000 nM, 0.8-28000 nM, and 0.6-20000 nM, respectively; with the AF647 labeled C1C2-NP fixed at 70 nM. This assay buffer was similar, except β-DDM was replaced with 0.1% n-Undecyl-β-D-Maltopyranoside (beta-UDM). In order to check non-specific binding of β-DDM micelles to the AF647 labeled C1C2-NP, the concentration of beta-DDM was varied from 0.03-900 μM and the concentration of the AF647-labeled C1C2-NP was fixed at 1 μM. A similar experiment was performed wherein the concentration of beta-UDM was varied from 0.3-10,000 μM and the concentration of AF647-labeled control NP was fixed at 1 μM. […] All experiments were conducted at 23° C. using the nano-red channel of the Monolith instrument and the data were analyzed by using either Monolith analysis software or Graph Pad Prism, version 9 (Graph Pad Software, San Diego, California).
To assess the binding affinity of C1C2-NPs to human claudin-1, C1C2-NPs were labeled with AF647 and binding to recombinant human claudin-1 quantified using MST. […]

The next series concerns the target T2, human claudin-9 (human, UniProt O95484 1-217, limits assumed).
T2 sequence (looked up): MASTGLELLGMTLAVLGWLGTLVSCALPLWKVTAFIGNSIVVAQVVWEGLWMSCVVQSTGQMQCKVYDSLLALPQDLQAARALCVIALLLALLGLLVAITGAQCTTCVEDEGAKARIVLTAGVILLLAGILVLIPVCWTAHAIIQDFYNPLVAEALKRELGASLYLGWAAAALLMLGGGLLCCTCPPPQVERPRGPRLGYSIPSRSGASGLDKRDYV
Kind of series: MST, sigmoidal dose-response fit (GraphPad Prism) of the FIG. 10A data; fit did not converge [panel B]. The procedure: FIG. 10C is a graph showing the binding of human claudins 4 and 9 to control NPs monitored using microscale thermophoresis. […] Data fitting for human claudins 3, 4 and 9 were performed using Graph Pad Prism.
Human claudin-1 was expressed and purified as reported previously (Vecchio & Stroud, 2019, PNAS USA, 116:17817-24). MST measurements were performed using a Monolith instrument (NanoTemper Technologies). For experiments with human claudin-1, the assay buffer contained 10 mM Tris HCl, pH 8.0, 100 mM NaCl, 4% glycerol, and 0.04% n-Dodecyl-β-D-Maltopyranoside (β-DDM). NPs and peptides were labeled with AF647 prior to MST analysis as described above. For the binding experiments, the concentration of human claudin-1 was varied from 2.2-73,500 nM and the AF647-labeled C1C2-NP was fixed at 70 nM, while the AF647 labeled NPs and AF647 labeled C1C2 peptide were fixed at 1 and 0.3 μM, respectively. Binding of the AF647 labeled C1C2-NP to human claudin-3, -4, and -9 were tested using 0.4-14000 nM, 0.8-28000 nM, and 0.6-20000 nM, respectively; with the AF647 labeled C1C2-NP fixed at 70 nM. […] All experiments were conducted at 23° C. using the nano-red channel of the Monolith instrument and the data were analyzed by using either Monolith analysis software or Graph Pad Prism, version 9 (Graph Pad Software, San Diego, California).

Take “C1C2-NP: PEG diacid coated ultrasmall Gd NP conjugated with C1C2 peptide SSVSQSTGQIQSKVDSLLNLNSTQATR (SEQ ID NO: 6); claudin-1 targeted (Ac-SSVSQSTGQIQSKVDSLLNLNSTQATR-NH2; also: conjugated to PEG diacid coated ultrasmall Gd nanoparticle)”: the “Zeta Potential, mV (with NPs)” value in series [1] is 7.81 ± 0.38 mV. For the same molecule, the “Hydrodynamic size (nm)” value in series [1] (DLS, DPBS pH 7.4) is 14.5 ± 0.13 nm.

B1: C1C2-NP (C1C2 peptide conjugated to PEG diacid coated ultrasmall Gd nanoparticles) (peptide)
peptide: Ac-SSVSQSTGQIQSKVDSLLNLNSTQATR-NH2
modifications: not fully specified; also: conjugated by EDC-NHS chemistry to PEG diacid on Gd oxide nanoparticle surface (19 peptides per 3.5 nm particle)
notes: The protein part is the C1C2 peptide; the core is not a protein; also called C1C2-NPs; C1C2 NPs
Regarding B1, in series [2], the dissociation constant (Kd) came to 21 µM. Also, the LogEC50 with human claudin-9 is -0.661.
